Measurements taken from US20250215103A1 (Hoffmann-La Roche, published 2025).

How the values were obtained:
Assay in all cases: cell-based or functional assay
[1] = molecular target: T1, human PD1 on cells (Jurkat cells expressing human PD1; activated human T cells) (human, UniProt Q15116 25-288)
[2] = molecular target: T1, human PD1 on cells (Jurkat cells …); remark: listed apart in the source
[3] = molecular target: T1, human PD1 on cells (Jurkat cells …); remark: listed apart in the source

T1 sequence (Q15116 25-288 limits assumed): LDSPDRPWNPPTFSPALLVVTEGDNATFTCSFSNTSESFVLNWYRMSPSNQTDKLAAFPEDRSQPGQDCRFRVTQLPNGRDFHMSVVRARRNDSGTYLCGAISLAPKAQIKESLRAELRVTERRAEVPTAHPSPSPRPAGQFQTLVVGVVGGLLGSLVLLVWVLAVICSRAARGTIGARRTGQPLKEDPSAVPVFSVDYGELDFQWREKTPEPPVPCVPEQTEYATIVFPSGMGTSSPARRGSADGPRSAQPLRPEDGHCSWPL

Row | Binder | Fold activity vs. control (EC50 of Granzyme B, mMLR), control PD1-0103-312 [1] [fold vs PD1-0103-312] | Fold activity vs. control (EC50 of Granzyme B, mMLR), control 8014 [2] [fold vs 8014] | EC50 (pM) of Granzyme B production, mMLR [3] [pM]
1 | bispecific CrossMab 8012 (PD1-0103-0312/51A165) (bispecific antibody, human IgG1, kappa, L234A L235A) heavy 1: EVQLQQSGPELVKPGASVKMSCKASGYTFTSYVMHWVKQKPGQGLEWIGYVNPYNDDTKYNEKFRGKATLTSDKSSSTAYMELSSLTSEDSAVYYCARSYYYYSMDNWGQGTSVTVSSASTKGPSVFPLAPSSKSTSGGTAALGCLVEDYFPEPVTVSWNSGALTSGVHTFPAVLQSSGLYSLSSVVTVPSSSLGTQTYICNVNHKPSNTKVDEKVEPKSCDKTHTCPPCPAPEAAGGPSVFLFPPKPKDTLMISRTPEVTCVVVDVSHEDPEVKFNWYVDGVEVHNAKTKPREEQYNSTYRVVSVLTVLHQDWLNGKEYKCKVSNKALGAPIEKTISKAKGQPREPQVCTLPPSRDELTKNQVSLSCAVKGFYPSDIAVEWESNGQPENNYKTTPPVLDSDGSFFLVSKLTVDKSRWQQGNVFSCSVMHEALHNHYTQKSLSLSP light 1: QIVLTQSPAIMSASPGEKVTVTCSASSSIRYMHWYQQKPGTSPKRWIYDTSELASGVPARFSGSGSGTSYSLTINSMEAEDAATYYCHQRSSYPFTFGGGTKLEIKRTVAAPSVFIFPPSDRKLKSGTASVVCLLNNFYPREAKVQWKVDNALQSGNSQESVTEQDSKDSTYSLSSTLTLSKADYEKHKVYACEVTHQGLSSPVTKSFNRGEC heavy 2: not shown light 2: EVQLLESGGGLVQPGGSLRLSCAASGFSFSSYTMSWVRQAPGKGLEWVATISGGGRDIYYPDSVKGRFTISRDNSKNTLYLQMNSLRAEDTAVYYCVLLTGRVYFALDSWGQGTLVTVSSASVAAPSVFIFPPSDEQLKSGTASVVCLLNNFYPREAKVQWKVDNALQSGNSQESVTEQDSKDSTYSLSSTLTLSKADYEKHKVYACEVTHQGLSSPVTKSFNRGEC | 3.82 | 1560 | 34
2 | control 2+1 CrossMab 8158 (PD1-0103-0312/Nada BBB-format) (bispecific antibody, human IgG1, kappa, L234A L235A) light 1: EVQLLESGGGLVQPGGSLRLSCAASGFSFSSYTMSWVRQAPGKGLEWVATISGGGRDIYYPDSVKGRFTISRDNSKNTLYLQMNSLRAEDTAVYYCVLLTGRVYFALDSWGQGTLVTVSSASVAAPSVFIFPPSDEQLKSGTASVVCLLNNFYPREAKVQWKVDNALQSGNSQESVTEQDSKDSTYSLSSTLTLSKADYEKHKVYACEVTHQGLSSPVTKSFNRGEC light 2: DIQMTQSPSSLSASVGDRVTITCRASQDVGSGVAWYQQKPGKAPKLLIGSASGLYSGVPSRFSGSRSGTDFTLTISSLQPEDFATYYCQQSASGGSTFGQGTKVEIKRTVAAPSVFIFPPSDRKLKSGTASVVCLLNNFYPREAKVQWKVDNALQSGNSQESVTEQDSKDSTYSLSSTLTLSKADYEKHKVYACEVTHQGLSSPVTKSFNRGEC heavy 1: DIVMTQSPDSLAVSLGERATINCKASESVDTSDNSFIHWYQQKPGQSPKLLIYRSSTLESGVPDRFSGSGSGTDFTLTISSLQAEDVAVYYCQQNYDVPWTFGQGTKVEIKSSASTKGPSVFPLAPSSKSTSGGTAALGCLVKDYFPEPVTVSWNSGALTSGVHTFPAVLQSSGLYSLSSVVTVPSSSLGTQTYICNVNHKPSNTKVDKKVEPKSCDKTHTCPPCPAPEAAGGPSVFLFPPKPKDTLMISRTPEVTCVVVDVSHEDPEVKFNWYVDGVEVHNAKTKPREEQYNSTYRVVSVLTVLHQDWLNGKEYKCKVSNKALGAPIEKTISKAKGQPREPQVCTLPPSRDELTKNQVSLSCAVKGFYPSDIAVEWESNGQPENNYKTTPPVLDSDGSFFLVSKLTVDKSRWQQGNVFSCSVMHEALHNHYTQKSLSLSPGKGGGGSGGGGSEVQLVESGGGLVQPGGSLRLSCAASGFSIAGTAIHWVRQAPGKGLEWVASISPGGGSTAYADSVKGRFTISADTSKNTAYLQMNSLRAEDTAVYYCSRSGGSGASAMDYWGQGTLVTVSSASTKGPSVFPLAPSSKSTSGGTAALGCLVEDYFPEPVTVSWNSGALTSGVHTFPAVLQSSGLYSLSSVVTVPSSSLGTQTYICNVNHKPSNTKVDEKVEPKSCD heavy 2: not shown |  |  | 111
3 | bispecific CrossMab 8013 (PD1-0103-0312/1026) (bispecific antibody, human IgG1, kappa, L234A L235A) heavy 1: QSMQESGPGLVKPSQTLSLTCTVSGFSLSSYAMSWIRQHPGKGLEWIGYIWSGGSTDYASWAKSRVTISKTSTTVSLKLSSVTAADTAVYYCARRYGTSYPDYGDASGFDPWGQGTLVTVSSASTKGPSVFPLAPSSKSTSGGTAALGCLVEDYFPEPVTVSWNSGALTSGVHTFPAVLQSSGLYSLSSVVTVPSSSLGTQTYICNVNHKPSNTKVDEKVEPKSCDKTHTCPPCPAPEAAGGPSVFLFPPKPKDTLMISRTPEVTCVVVDVSHEDPEVKFNWYVDGVEVHNAKTKPREEQYNSTYRVVSVLTVLHQDWLNGKEYKCKVSNKALGAPIEKTISKAKGQPREPQVCTLPPSRDELTKNQVSLSCAVKGFYPSDIAVEWESNGQPENNYKTTPPVLDSDGSFFLVSKLTVDKSRWQQGNVFSCSVMHEALHNHYTQKSLSLSP light 1: AIQLTQSPSSLSASVGDRVTITCRASQSISSYLAWYQQKPGKAPKLLIYRASTLASGVPSRFSGSGSGTDFTLTISSLQPEDFATYYCQQNYASSNVDNTFGGGTKVEIKRTVAAPSVFIFPPSDRKLKSGTASVVCLLNNFYPREAKVQWKVDNALQSGNSQESVTEQDSKDSTYSLSSTLTLSKADYEKHKVYACEVTHQGLSSPVTKSFNRGEC heavy 2: not shown light 2: EVQLLESGGGLVQPGGSLRLSCAASGFSFSSYTMSWVRQAPGKGLEWVATISGGGRDIYYPDSVKGRFTISRDNSKNTLYLQMNSLRAEDTAVYYCVLLTGRVYFALDSWGQGTLVTVSSASVAAPSVFIFPPSDEQLKSGTASVVCLLNNFYPREAKVQWKVDNALQSGNSQESVTEQDSKDSTYSLSSTLTLSKADYEKHKVYACEVTHQGLSSPVTKSFNRGEC | 0.47 | 191 | 388
4 | control 2+1 CrossMab 8159 (PD1-0103-0312/Nada TCB-format) (bispecific antibody, human IgG1, kappa, L234A L235A) light 1: EVQLLESGGGLVQPGGSLRLSCAASGFSFSSYTMSWVRQAPGKGLEWVATISGGGRDIYYPDSVKGRFTISRDNSKNTLYLQMNSLRAEDTAVYYCVLLTGRVYFALDSWGQGTLVTVSSASVAAPSVFIFPPSDEQLKSGTASVVCLLNNFYPREAKVQWKVDNALQSGNSQESVTEQDSKDSTYSLSSTLTLSKADYEKHKVYACEVTHQGLSSPVTKSFNRGEC light 2: DIQMTQSPSSLSASVGDRVTITCRASQDVGSGVAWYQQKPGKAPKLLIGSASGLYSGVPSRFSGSRSGTDFTLTISSLQPEDFATYYCQQSASGGSTFGQGTKVEIKRTVAAPSVFIFPPSDRKLKSGTASVVCLLNNFYPREAKVQWKVDNALQSGNSQESVTEQDSKDSTYSLSSTLTLSKADYEKHKVYACEVTHQGLSSPVTKSFNRGEC heavy 1: DIVMTQSPDSLAVSLGERATINCKASESVDTSDNSFIHWYQQKPGQSPKLLIYRSSTLESGVPDRFSGSGSGTDFTLTISSLQAEDVAVYYCQQNYDVPWTFGQGTKVEIKSSASTKGPSVFPLAPSSKSTSGGTAALGCLVKDYFPEPVTVSWNSGALTSGVHTFPAVLQSSGLYSLSSVVTVPSSSLGTQTYICNVNHKPSNTKVDKKVEPKSCDGGGGSGGGGSEVQLVESGGGLVQPGGSLRLSCAASGFSIAGTAIHWVRQAPGKGLEWVASISPGGGSTAYADSVKGRFTISADTSKNTAYLQMNSLRAEDTAVYYCSRSGGSGASAMDYWGQGTLVTVSSASTKGPSVFPLAPSSKSTSGGTAALGCLVEDYFPEPVTVSWNSGALTSGVHTFPAVLQSSGLYSLSSVVTVPSSSLGTQTYICNVNHKPSNTKVDEKVEPKSCDKTHTCPPCPAPEAAGGPSVFLFPPKPKDTLMISRTPEVTCVVVDVSHEDPEVKFNWYVDGVEVHNAKTKPREEQYNSTYRVVSVLTVLHQDWLNGKEYKCKVSNKALGAPIEKTISKAKGQPREPQVCTLPPSRDELTKNQVSLSCAVKGFYPSDIAVEWESNGQPENNYKTTPPVLDSDGSFFLVSKLTVDKSRWQQGNVFSCSVMHEALHNHYTQKSLSLSP heavy 2: not shown |  |  | 117
5 | control CrossMab 8014 (PD1-0103-0312/Nada) (bispecific antibody, human IgG1, kappa, L234A L235A) heavy 1: EVQLVESGGGLVQPGGSLRLSCAASGFSIAGTAIHWVRQAPGKGLEWVASISPGGGSTAYADSVKGRFTISADTSKNTAYLQMNSLRAEDTAVYYCSRSGGSGASAMDYWGQGTLVTVSSASTKGPSVFPLAPSSKSTSGGTAALGCLVEDYFPEPVTVSWNSGALTSGVHTFPAVLQSSGLYSLSSVVTVPSSSLGTQTYICNVNHKPSNTKVDEKVEPKSCDKTHTCPPCPAPEAAGGPSVFLFPPKPKDTLMISRTPEVTCVVVDVSHEDPEVKFNWYVDGVEVHNAKTKPREEQYNSTYRVVSVLTVLHQDWLNGKEYKCKVSNKALGAPIEKTISKAKGQPREPQVCTLPPSRDELTKNQVSLSCAVKGFYPSDIAVEWESNGQPENNYKTTPPVLDSDGSFFLVSKLTVDKSRWQQGNVFSCSVMHEALHNHYTQKSLSLSP light 1: DIQMTQSPSSLSASVGDRVTITCRASQDVGSGVAWYQQKPGKAPKLLIGSASGLYSGVPSRFSGSRSGTDFTLTISSLQPEDFATYYCQQSASGGSTFGQGTKVEIKRTVAAPSVFIFPPSDRKLKSGTASVVCLLNNFYPREAKVQWKVDNALQSGNSQESVTEQDSKDSTYSLSSTLTLSKADYEKHKVYACEVTHQGLSSPVTKSFNRGEC heavy 2: not shown light 2: EVQLLESGGGLVQPGGSLRLSCAASGFSFSSYTMSWVRQAPGKGLEWVATISGGGRDIYYPDSVKGRFTISRDNSKNTLYLQMNSLRAEDTAVYYCVLLTGRVYFALDSWGQGTLVTVSSASVAAPSVFIFPPSDEQLKSGTASVVCLLNNFYPREAKVQWKVDNALQSGNSQESVTEQDSKDSTYSLSSTLTLSKADYEKHKVYACEVTHQGLSSPVTKSFNRGEC |  |  | 13100
6 | PD1-0103-0312 (antibody, V domains shown) VH: EVQLLESGGGLVQPGGSLRLSCAASGFSFSSYTMSWVRQAPGKGLEWVATISGGGRDIYYPDSVKGRFTISRDNSKNTLYLQMNSLRAEDTAVYYCVLLTGRVYFALDSWGQGTLVTVSS VL: DIVMTQSPDSLAVSLGERATINCKASESVDTSDNSFIHWYQQKPGQSPKLLIYRSSTLESGVPDRFSGSGSGTDFTLTISSLQAEDVAVYYCQQNYDVPWTFGQGTKVEIK |  |  | 110
